From patent US20090208416A1

Assays:
[1] = molecular target: NKG2A on rhesus monkey (Macaca mulatta) NK cells (rhesus monkey (Macaca mulatta)) (UniProt Q9MZJ3); assay: FACS rhesus whole blood, animal R00007
[2] = molecular target: NKG2A on baboon NK cells (baboon); assay: FACS baboon whole blood NK cells, animal V9929
[3] = molecular target: NKG2A on rhesus monkey (Macaca mulatta) NK cells (rhesus monkey (Macaca mulatta)) (UniProt Q9MZJ3); assay: FACS rhesus whole blood NK cells, animal *8703
[4] = molecular target: NKG2A on rhesus monkey (Macaca mulatta) NK cells (rhesus monkey (Macaca mulatta)) (UniProt Q9MZJ3); assay: FACS rhesus whole blood NK cells, animal RU925
[5] = molecular target: NKG2A on rhesus monkey (Macaca mulatta) NK cells (rhesus monkey (Macaca mulatta)) (UniProt Q9MZJ3); assay: FACS rhesus whole blood NK cells, animal PM021
[6] = molecular target: NKG2A on baboon NK cells (baboon); assay: FACS baboon whole blood NK cells, animal V942A
[7] = molecular target: NKG2A on rhesus monkey (Macaca mulatta) NK cells (rhesus monkey (Macaca mulatta)) (UniProt Q9MZJ3); assay: FACS rhesus whole blood, animal R99273
[8] = molecular target: NKG2A on rhesus monkey (Macaca mulatta) NK cells (rhesus monkey (Macaca mulatta)) (UniProt Q9MZJ3); assay: FACS rhesus whole blood NK cells, animal CH256
[9] = molecular target: NKG2A on baboon NK cells (baboon); assay: FACS baboon whole blood NK cells, animal V992
[10] = molecular target: NKG2A on rhesus monkey (Macaca mulatta) NK cells (rhesus monkey (Macaca mulatta)) (UniProt Q9MZJ3); assay: FACS rhesus whole blood NK cells, animal N0404
[11] = molecular target: NKG2A on cynomolgus monkey NK cells (cynomolgus monkey) (UniProt Q68VD2); assay: FACS cynomolgus whole blood, animal AL303
UniProt Q68VD2, sequence (Q68VD2 entry or part of it): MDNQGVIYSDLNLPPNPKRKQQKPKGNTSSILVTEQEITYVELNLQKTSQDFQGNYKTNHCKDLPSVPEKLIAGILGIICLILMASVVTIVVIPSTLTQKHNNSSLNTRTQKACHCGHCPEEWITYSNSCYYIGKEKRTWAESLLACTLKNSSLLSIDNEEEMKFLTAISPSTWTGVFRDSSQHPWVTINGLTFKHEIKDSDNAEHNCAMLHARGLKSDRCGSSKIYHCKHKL

[12] = molecular target: NKG2A on rhesus monkey (Macaca mulatta) NK cells (rhesus monkey (Macaca mulatta)) (UniProt Q9MZJ3); assay: FACS rhesus whole blood, animal R00073 (6.1 kg)
[13] = molecular target: NKG2A on baboon NK cells (baboon); assay: FACS baboon whole blood NK cells, animal O22V
[14] = molecular target: NKG2A on rhesus monkey (Macaca mulatta) NK cells (rhesus monkey (Macaca mulatta)) (UniProt Q9MZJ3); assay: FACS rhesus whole blood, animal R00055
[15] = molecular target: NKG2A on cynomolgus monkey NK cells (cynomolgus monkey) (UniProt Q68VD2); assay: FACS cynomolgus whole blood, animal AK565
[16] = molecular target: NKG2A on baboon NK cells (baboon); assay: FACS baboon whole blood NK cells, animal PA977
[17] = molecular target: NKG2A on cynomolgus monkey NK cells (cynomolgus monkey) (UniProt Q68VD2); assay: FACS cynomolgus whole blood, animal AL389
[18] = molecular target: NKG2A on rhesus monkey (Macaca mulatta) NK cells (rhesus monkey (Macaca mulatta)) (UniProt Q9MZJ3); assay: FACS rhesus whole blood, animal R00085
[19] = molecular target: NKG2A on rhesus monkey (Macaca mulatta) NK cells (rhesus monkey (Macaca mulatta)) (UniProt Q9MZJ3); assay: FACS rhesus whole blood, animal R00101
[20] = molecular target: NKG2A on baboon NK cells (baboon); assay: FACS baboon whole blood NK cells, animal V9920
[21] = molecular target: NKG2A on baboon NK cells (baboon); assay: FACS baboon whole blood NK cells, animal V999
[22] = molecular target: NKG2A on rhesus monkey (Macaca mulatta) NK cells (rhesus monkey (Macaca mulatta)) (UniProt Q9MZJ3); assay: FACS rhesus whole blood, mean over animals
[23] = molecular target: NKG2A on baboon NK cells (baboon); assay: FACS baboon whole blood NK cells, animal V997
[24] = molecular target: NKG2A on cynomolgus monkey NK cells (cynomolgus monkey) (UniProt Q68VD2); assay: FACS cynomolgus whole blood, mean of 10 animals
[25] = molecular target: NKG2A on baboon NK cells (baboon); assay: FACS baboon whole blood NK cells, animal V9912
[26] = molecular target: NKG2A on baboon NK cells (baboon); assay: FACS baboon whole blood NK cells, animal PA983
[27] = molecular target: NKG2A on rhesus monkey (Macaca mulatta) NK cells (rhesus monkey (Macaca mulatta)) (UniProt Q9MZJ3); assay: FACS rhesus whole blood NK cells, mean of 9 animals
[28] = molecular target: NKG2A on baboon NK cells (baboon); assay: FACS baboon whole blood NK cells, animal V861B
[29] = molecular target: NKG2A on rhesus monkey (Macaca mulatta) NK cells (rhesus monkey (Macaca mulatta)) (UniProt Q9MZJ3); assay: FACS rhesus whole blood, animal R00099
[30] = molecular target: NKG2A on baboon NK cells (baboon); assay: FACS baboon whole blood NK cells, animal V989
[31] = molecular target: NKG2A on cynomolgus monkey NK cells (cynomolgus monkey) (UniProt Q68VD2); assay: FACS cynomolgus whole blood, animal T788
[32] = molecular target: NKG2A on rhesus monkey (Macaca mulatta) NK cells (rhesus monkey (Macaca mulatta)) (UniProt Q9MZJ3); assay: FACS rhesus whole blood, animal R00041
[33] = molecular target: NKG2A on baboon NK cells (baboon); assay: FACS baboon whole blood NK cells, animal K938A
[34] = molecular target: NKG2A on baboon NK cells (baboon); assay: FACS baboon whole blood NK cells, animal V918C

UniProt Q9MZJ3, sequence (Q9MZJ3 whole entry): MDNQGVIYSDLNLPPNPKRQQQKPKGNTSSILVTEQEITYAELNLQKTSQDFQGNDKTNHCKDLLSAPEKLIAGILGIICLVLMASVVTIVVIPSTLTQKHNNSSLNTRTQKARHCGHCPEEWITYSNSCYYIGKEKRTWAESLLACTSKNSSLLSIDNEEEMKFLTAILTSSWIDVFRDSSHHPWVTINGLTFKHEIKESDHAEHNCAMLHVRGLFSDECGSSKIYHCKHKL

mouse IgG1 isotype control (antibody)
% NK+ [1]: 1.5%
MFI [1]: 0.52
% [2]: 0.3%
tot. MFI [2]: 0.2
% [3]: 0.4%
% [4]: 0.4%
% [5]: 0.8%
% [6]: 1.7%
tot. MFI [6]: 1
% NK+ [7]: 0.5%
MFI [7]: 0.54
% [8]: 0.8%
% [9]: 0.6%
tot. MFI [9]: 0.3
% [10]: 0.6%
% NK+ [11]: 0.13%
MFI [11]: 0.63
% NK+ [12]: 0.7%
MFI [12]: 0.59
% [13]: 0.5%
tot. MFI [13]: 0.2
% NK+ [14]: 0.6%
MFI [14]: 0.7
% NK+ [15]: 0.6%
MFI [15]: 0.66
% [16]: 0.9%
tot. MFI [16]: 1.1
% NK+ [17]: 0.3%
MFI [17]: 0.63
% NK+ [18]: 0.9%
MFI [18]: 0.7
% NK+ [19]: 0.5%
MFI [19]: 0.58
% [20]: 0.7%
tot. MFI [20]: 0.8
% [21]: 0.3%
tot. MFI [21]: 0.2
% NK+ (Mean) [22]: 0.7%
MFI (Mean) [22]: 0.6
% [23]: 0.7%
tot. MFI [23]: 0.2
% NK+ (Mean) [24]: 0.3%
MFI (Mean) [24]: 0.6
% [25]: 0.2%
tot. MFI [25]: 0.2
% [26]: 0.1%
tot. MFI [26]: 0.7
% (Mean) [27]: 0.7%
% [28]: 0.2%
tot. MFI [28]: 0.6
% NK+ [29]: 1.2%
MFI [29]: 0.56
% [30]: 1.2%
tot. MFI [30]: 1.2
% NK+ [31]: 0.3%
MFI [31]: 0.5
% NK+ [32]: 0.9%
MFI [32]: 0.48
% [33]: 0.3%
tot. MFI [33]: 0.3
% [34]: 0.3%
tot. MFI [34]: 1.1
